Experimental data: PMC9482650, “Quantitative fragmentomics allow affinity mapping of interactomes” (Nature Communications, 2022)

T1: FRMPD1, Q5SYB0
T1 sequence (Q5SYB0 52-145, limits assumed, looked up): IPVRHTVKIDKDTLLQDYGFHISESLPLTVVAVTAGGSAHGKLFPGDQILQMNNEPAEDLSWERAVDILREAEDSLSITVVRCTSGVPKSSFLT

T2: RAPGEF6, Q8TEU7
T2 sequence (Q8TEU7 525-625, limits assumed, looked up): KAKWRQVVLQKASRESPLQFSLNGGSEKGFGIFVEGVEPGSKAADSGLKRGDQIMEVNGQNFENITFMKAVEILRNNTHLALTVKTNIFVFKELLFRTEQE

T3: GRIP1_3, Q9Y3R0
T3 sequence (Q9Y3R0 247-346, limits assumed, looked up): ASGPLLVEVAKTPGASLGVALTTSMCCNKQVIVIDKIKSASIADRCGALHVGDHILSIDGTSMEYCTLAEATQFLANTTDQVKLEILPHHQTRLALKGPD

T4: RHPN1, Q8TCX5
T4 sequence (Q8TCX5 508-602, limits assumed, looked up): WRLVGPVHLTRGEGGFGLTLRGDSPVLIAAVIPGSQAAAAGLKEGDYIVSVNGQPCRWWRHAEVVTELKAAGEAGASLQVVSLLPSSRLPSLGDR

T5: PDZRN3_1, Q9UPQ7
T5 sequence (Q9UPQ7 244-349, limits assumed, looked up): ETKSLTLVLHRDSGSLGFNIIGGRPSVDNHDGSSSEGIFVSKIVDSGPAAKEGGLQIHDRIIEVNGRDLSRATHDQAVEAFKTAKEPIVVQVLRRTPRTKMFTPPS

T6: TJP3_3, O95049
T6 sequence (O95049 375-456, limits assumed, looked up): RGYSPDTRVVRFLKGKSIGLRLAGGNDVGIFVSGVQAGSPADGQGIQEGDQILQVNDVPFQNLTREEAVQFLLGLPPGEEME

T7: LIN7A, O14910
T7 sequence (O14910 103-200, limits assumed, looked up): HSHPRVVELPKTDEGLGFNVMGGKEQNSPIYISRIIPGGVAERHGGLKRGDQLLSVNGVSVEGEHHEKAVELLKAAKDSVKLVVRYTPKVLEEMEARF

T8: GRIP1_2, Q9Y3R0
T8 sequence (Q9Y3R0 145-248, limits assumed, looked up): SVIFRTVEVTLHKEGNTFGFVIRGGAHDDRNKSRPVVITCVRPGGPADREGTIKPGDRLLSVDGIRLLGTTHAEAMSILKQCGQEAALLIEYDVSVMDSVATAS

T9: RADIL, Q96JH8
T9 sequence (Q96JH8 971-1071, limits assumed, looked up): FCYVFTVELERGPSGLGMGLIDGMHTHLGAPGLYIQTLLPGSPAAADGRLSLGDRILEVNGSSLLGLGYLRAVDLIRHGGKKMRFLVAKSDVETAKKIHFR

T10: GRIP1_5, Q9Y3R0
T10 sequence (Q9Y3R0 568-668, limits assumed, looked up): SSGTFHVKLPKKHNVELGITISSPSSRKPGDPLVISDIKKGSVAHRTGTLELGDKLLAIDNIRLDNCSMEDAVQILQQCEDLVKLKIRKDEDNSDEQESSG


Key:
Test in all cases: holdup assay
Design in all cases: key: below the threshold = too weak to quantify, mostly under pKd 3.1 to 4
Conditions in all cases: plain residues with an end cap or a label only (N-terminal biotin on a linker: ado-ado)
FRMPD1, Q5SYB0 = target: T1, FRMPD1, Q5SYB0
DLG5_1, Q8TDM6 = target: DLG5_1, Q8TDM6
RAPGEF6, Q8TEU7 = target: T2, RAPGEF6, Q8TEU7
GOPC, Q9HD26 = target: GOPC, Q9HD26
LNX1_3, Q8TBB1 = target: LNX1_3, Q8TBB1
SCRIB_1, Q14160 = target: SCRIB_1, Q14160
GRIP1_3, Q9Y3R0 = target: T3, GRIP1_3, Q9Y3R0
MAST2, Q6P0Q8 = target: MAST2, Q6P0Q8
NHERF4_2, Q86UT5 = target: NHERF4_2, Q86UT5
DLG4_3, P78352 = target: DLG4_3, P78352
HTRA1, Q92743 = target: HTRA1, Q92743
Inadl_10, Q8NI35 = target: Inadl_10, Q8NI35
GORASP1, Q9BQQ3 = target: GORASP1, Q9BQQ3
RHPN1, Q8TCX5 = target: T4, RHPN1, Q8TCX5
GORASP2, Q9H8Y8 = target: GORASP2, Q9H8Y8
PDZRN3_1, Q9UPQ7 = target: T5, PDZRN3_1, Q9UPQ7
LNX1_1, Q8TBB1 = target: LNX1_1, Q8TBB1
TJP2_1, Q9UDY2 = target: TJP2_1, Q9UDY2
TJP3_3, O95049 = target: T6, TJP3_3, O95049
LIN7A, O14910 = target: T7, LIN7A, O14910
GRIP1_2, Q9Y3R0 = target: T8, GRIP1_2, Q9Y3R0
RADIL, Q96JH8 = target: T9, RADIL, Q96JH8
MAGI1_1, Q96QZ7 = target: MAGI1_1, Q96QZ7
PDLIM1, O00151 = target: PDLIM1, O00151
PDZRN4_1, Q6ZMN7 = target: PDZRN4_1, Q6ZMN7
GRIP1_5, Q9Y3R0 = target: T10, GRIP1_5, Q9Y3R0
NHERF4_4, Q86UT5 = target: NHERF4_4, Q86UT5
DLG1_1, Q12959 = target: DLG1_1, Q12959

Sequence of DLG4_3, P78352 (P78352 306-403): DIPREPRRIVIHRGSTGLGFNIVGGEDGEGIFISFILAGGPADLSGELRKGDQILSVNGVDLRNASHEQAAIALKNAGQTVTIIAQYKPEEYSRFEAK
Sequence of NHERF4_2, Q86UT5 (Q86UT5 220-308): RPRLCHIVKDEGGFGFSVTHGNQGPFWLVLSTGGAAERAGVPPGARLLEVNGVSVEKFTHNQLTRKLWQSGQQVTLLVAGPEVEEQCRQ
Sequence of PDZRN4_1, Q6ZMN7 (Q6ZMN7 213-318): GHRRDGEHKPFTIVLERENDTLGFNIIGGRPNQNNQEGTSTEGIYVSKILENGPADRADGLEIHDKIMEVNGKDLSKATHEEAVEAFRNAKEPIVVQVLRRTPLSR
Sequence of DLG5_1, Q8TDM6 (Q8TDM6 617-713): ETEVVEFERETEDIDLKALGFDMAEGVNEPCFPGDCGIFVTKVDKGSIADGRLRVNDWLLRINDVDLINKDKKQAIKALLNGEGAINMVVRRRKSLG
Sequence of SCRIB_1, Q14160 (Q14160 718-814): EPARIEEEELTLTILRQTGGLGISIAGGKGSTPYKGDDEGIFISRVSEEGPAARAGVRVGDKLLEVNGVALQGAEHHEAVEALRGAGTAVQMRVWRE
Sequence of HTRA1, Q92743 (Q92743 360-477): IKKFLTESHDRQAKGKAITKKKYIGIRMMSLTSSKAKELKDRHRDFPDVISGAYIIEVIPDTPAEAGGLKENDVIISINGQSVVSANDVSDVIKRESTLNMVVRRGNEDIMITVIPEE
Sequence of MAGI1_1, Q96QZ7 (Q96QZ7 1-106): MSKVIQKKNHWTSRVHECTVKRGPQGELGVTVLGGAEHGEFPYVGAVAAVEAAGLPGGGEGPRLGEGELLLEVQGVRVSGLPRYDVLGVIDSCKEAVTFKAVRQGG
Sequence of PDLIM1, O00151 (O00151 1-87): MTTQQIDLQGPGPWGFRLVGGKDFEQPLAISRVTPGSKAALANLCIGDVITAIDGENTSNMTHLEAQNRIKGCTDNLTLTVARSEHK
Sequence of MAST2, Q6P0Q8 (Q6P0Q8 1099-1202): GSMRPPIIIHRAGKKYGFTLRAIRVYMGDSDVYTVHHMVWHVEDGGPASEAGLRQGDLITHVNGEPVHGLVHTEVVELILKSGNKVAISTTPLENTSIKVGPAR
Sequence of NHERF4_4, Q86UT5 (Q86UT5 464-550): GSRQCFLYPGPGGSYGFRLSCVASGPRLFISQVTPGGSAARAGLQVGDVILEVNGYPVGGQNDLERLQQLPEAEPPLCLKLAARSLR
Sequence of TJP2_1, Q9UDY2 (Q9UDY2 24-128): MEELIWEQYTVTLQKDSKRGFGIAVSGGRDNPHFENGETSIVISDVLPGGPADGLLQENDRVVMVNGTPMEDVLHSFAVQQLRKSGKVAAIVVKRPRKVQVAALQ
Sequence of LNX1_1, Q8TBB1 (Q8TBB1 261-371): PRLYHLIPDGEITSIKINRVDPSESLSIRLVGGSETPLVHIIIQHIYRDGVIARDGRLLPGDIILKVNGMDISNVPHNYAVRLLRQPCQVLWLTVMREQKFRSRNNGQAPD
Sequence of Inadl_10, Q8NI35 (Q8NI35 1673-1763): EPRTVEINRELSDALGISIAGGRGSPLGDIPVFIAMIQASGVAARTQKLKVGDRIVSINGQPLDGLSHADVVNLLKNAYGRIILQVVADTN
Sequence of LNX1_3, Q8TBB1 (Q8TBB1 500-596): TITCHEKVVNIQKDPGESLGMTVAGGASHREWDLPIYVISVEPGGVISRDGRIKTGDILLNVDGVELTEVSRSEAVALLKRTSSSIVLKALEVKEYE
Sequence of GORASP1, Q9BQQ3 (Q9BQQ3 1-208): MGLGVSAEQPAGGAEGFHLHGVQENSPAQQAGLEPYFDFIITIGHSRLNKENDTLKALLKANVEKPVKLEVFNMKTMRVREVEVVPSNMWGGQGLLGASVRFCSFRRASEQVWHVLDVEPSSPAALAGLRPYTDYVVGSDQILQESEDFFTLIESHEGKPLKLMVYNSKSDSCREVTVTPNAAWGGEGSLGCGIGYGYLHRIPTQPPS

| Binder | pKd (FRMPD1, Q5SYB0) | pKd (DLG5_1, Q8TDM6) | pKd (RAPGEF6, Q8TEU7) | pKd (GOPC, Q9HD26) | pKd (LNX1_3, Q8TBB1) | pKd (SCRIB_1, Q14160) | pKd (GRIP1_3, Q9Y3R0) | pKd (MAST2, Q6P0Q8) | pKd (NHERF4_2, Q86UT5) | pKd (DLG4_3, P78352) | pKd (HTRA1, Q92743) | pKd (Inadl_10, Q8NI35) | pKd (GORASP1, Q9BQQ3) | pKd (RHPN1, Q8TCX5) | pKd (GORASP2, Q9H8Y8) | pKd (PDZRN3_1, Q9UPQ7) | pKd (LNX1_1, Q8TBB1) | pKd (TJP2_1, Q9UDY2) | pKd (TJP3_3, O95049) | pKd (LIN7A, O14910) | further results |
| --- | --- | --- | --- | --- | --- | --- | --- | --- | --- | --- | --- | --- | --- | --- | --- | --- | --- | --- | --- | --- | --- |
| KKTPVSRSHL [SLC22A3, O75751] | below the threshold | below the threshold | below the threshold | 3.81 | below the threshold | 3.91 | below the threshold | 4.69 | below the threshold | below the threshold | 3.61 | below the threshold | below the threshold | below the threshold | below the threshold | below the threshold | below the threshold | below the threshold | below the threshold | below the threshold | pKd (GRIP1_2, Q9Y3R0): below the threshold; pKd (RADIL, Q96JH8): below the threshold; pKd (MAGI1_1, Q96QZ7): below the threshold; pKd (PDLIM1, O00151): below the threshold; pKd (PDZRN4_1, Q6ZMN7): 3.66; pKd (GRIP1_5, Q9Y3R0): below the threshold; pKd (NHERF4_4, Q86UT5): below the threshold; pKd (DLG1_1, Q12959): below the threshold |
| KAEEKPPSKV [SCN4B, Q8IWT1] | below the threshold | below the threshold | below the threshold | below the threshold | below the threshold | below the threshold | below the threshold | below the threshold | 3.49 | below the threshold | below the threshold | below the threshold | below the threshold | below the threshold | below the threshold | below the threshold | 3.49 | below the threshold | below the threshold | below the threshold | pKd (GRIP1_2, Q9Y3R0): below the threshold; pKd (RADIL, Q96JH8): below the threshold; pKd (MAGI1_1, Q96QZ7): below the threshold; pKd (PDLIM1, O00151): below the threshold; pKd (PDZRN4_1, Q6ZMN7): below the threshold; pKd (GRIP1_5, Q9Y3R0): below the threshold; pKd (NHERF4_4, Q86UT5): below the threshold; pKd (DLG1_1, Q12959): below the threshold |
| HDDYFYHDEL [RCN2, Q14257] | below the threshold | below the threshold | below the threshold | 3.59 | below the threshold | below the threshold | below the threshold | 4.85 | below the threshold | 3.53 | 3.98 | below the threshold | below the threshold | below the threshold | below the threshold | below the threshold | below the threshold | below the threshold | below the threshold | below the threshold | pKd (GRIP1_2, Q9Y3R0): below the threshold; pKd (RADIL, Q96JH8): 3.5; pKd (MAGI1_1, Q96QZ7): below the threshold; pKd (PDLIM1, O00151): 3.83; pKd (PDZRN4_1, Q6ZMN7): below the threshold; pKd (GRIP1_5, Q9Y3R0): below the threshold; pKd (NHERF4_4, Q86UT5): below the threshold; pKd (DLG1_1, Q12959): below the threshold |
